Reference: EP2344531B1

Legend:
[1] = target: VEGF (vascular endothelial growth factor) (UniProt P15692); assay: BioVeris ECL competition assay with a labeled competitor; legend: +++ = IC50 about 2 - 10 µM
[2] = target: TGFβ1 (transforming growth factor β1) (UniProt P01137); assay: BioVeris ECL competition assay with a labeled competitor; legend: ++ = IC50 about 10 - 50 µM
[3] = target: VEGF (vascular endothelial growth factor) (UniProt P15692); assay: BioVeris ECL competition assay with a labeled competitor; negative control
[4] = target: FGF-5 (fibroblast growth factor 5) (UniProt P12034); assay: as above
FGF-5 (fibroblast growth factor 5), sequence (P12034 18-268 limits assumed): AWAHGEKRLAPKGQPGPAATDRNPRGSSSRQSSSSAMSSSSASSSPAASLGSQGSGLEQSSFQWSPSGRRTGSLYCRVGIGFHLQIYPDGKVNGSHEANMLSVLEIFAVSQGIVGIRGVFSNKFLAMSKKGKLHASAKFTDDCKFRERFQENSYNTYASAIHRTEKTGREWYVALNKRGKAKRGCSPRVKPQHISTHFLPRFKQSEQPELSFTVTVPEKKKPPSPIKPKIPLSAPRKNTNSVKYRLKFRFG

VEGF (vascular endothelial growth factor), sequence (P15692 other isoform, or with tags, fused parts or gaps limits assumed): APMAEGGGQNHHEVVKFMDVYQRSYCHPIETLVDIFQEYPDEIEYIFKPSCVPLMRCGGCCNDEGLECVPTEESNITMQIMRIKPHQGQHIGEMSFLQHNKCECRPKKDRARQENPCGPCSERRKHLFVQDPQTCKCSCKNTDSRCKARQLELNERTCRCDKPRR
TGFβ1 (transforming growth factor β1), sequence (P01137 279-390 limits assumed): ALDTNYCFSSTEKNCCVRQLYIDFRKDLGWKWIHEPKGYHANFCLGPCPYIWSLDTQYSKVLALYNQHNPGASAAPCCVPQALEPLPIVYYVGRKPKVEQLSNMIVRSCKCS

Row | IC50 [1] [µM] | IC50 [2] [µM] | further results | Substance
1 | 2 to 10 |  |  | BBIt with the VEGF-binding peptide VegKD (KYDLYWW) in the chymotrypsin loop (designed binder)
2 | 2 to 10 |  |  | BBIt-VEGK (BBIt with the VEGF-binding peptide VegK KYYLYWW in the chymotrypsin loop) (designed binder)
3 | 2 to 10 |  |  | BBIt-VEGT (BBIt with the VEGF-binding peptide VegT TLWKSYW in the chymotrypsin loop) (designed binder)
4 |  | 10 to 50 |  | PEN3-Q-BBIt-TGF-A40L-F50N (BBIt-A40L-F50N with the TGFβ1 binding peptide PEN3 PENINVLP) (designed binder)
5 |  | 10 to 50 |  | WTQ-BBIt-Q-TGF (BBIt-A13I-L29P-F50T-V52A with the TGFβ1 binding peptide WTQ WTQHIHN) (designed binder)
6 |  |  | IC50 [3]: > 250 µM; IC50 [4]: > 250 µM | sBBI (wild-type soybean Bowman-Birk Inhibitor) (from UniProt P01055 40-110)
